Experiments:
[1] = biological target: the molecule itself; test: SEC-MALS; Superdex 200 Increase 10/30; 20 mM Tris/acetate pH 7.6, 150 mM NaCl, 0.1 mM EDTA, 0.1 mM PMSF, 2 mM DTT; 200–250 μg of HspB8 WT or R29A, or 400 μg of Δ28–32 loaded
[2] = biological target: the molecule itself; test: SEC-MALS; Superdex 200 Increase 10/30; buffer D (20 mM Tris/acetate pH 7.6, 150 mM NaCl, 0.1 mM EDTA, 0.1 mM PMSF) without any reducing agents; 200–250 μg of oxidized HspB8Cys loaded

B1: HspB8 R29A mutant (natural protein, human, UniProt Q9UJY1 1-196, looked up)
chain: MADGQMPFSCHYPSRLRRDPFRDSPLSSALLDDGFGMDPFPDDLTASWPDWALPRLSSAWPGTLRSGMVPRGPTATARFGVPAEGRTPPPFPGEPWKVCVNVHSFKPEELMVKTKDGYVEVSGKHEEKQQEGGIVSKNFTKKIQLPAEVDPVTVFASLSPEGLLIIEAPQVPPYSTFGESSFNNELPQDSQEVTCT
notes: human HspB8 (Hsp22), Uniprot Q9UJY1, carrying the R29A mutation; calculated Mw of monomer 21.5 kDa; No tag is named
binding result [1]: binds

B2: oxidized Cys mutant of HspB8 (C10S/C99S/C195S/N138C) (natural protein, human, UniProt Q9UJY1 1-196, looked up)
chain: MADGQMPFSSHYPSRLRRDPFRDSPLSSRLLDDGFGMDPFPDDLTASWPDWALPRLSSAWPGTLRSGMVPRGPTATARFGVPAEGRTPPPFPGEPWKVSVNVHSFKPEELMVKTKDGYVEVSGKHEEKQQEGGIVSKCFTKKIQLPAEVDPVTVFASLSPEGLLIIEAPQVPPYSTFGESSFNNELPQDSQEVTST
modifications: engineered disulfide bridge between the Cys138 residues of two chains (oxidized form)
notes: human HspB8 (Hsp22), Uniprot Q9UJY1, with the C10S/C99S/C195S/N138C amino acid substitutions; calculated Mw of monomer 21.5 kDa; The dimer is covalent (S-S crosslinked) after oxidation; No tag is named; also called HspB8Cys; oxidized HspB8Cys; source: oxidized by overnight dialysis
stoichiometry N [2]: 2

B3: HspB8 Δ28–32 mutant (natural protein, human, UniProt Q9UJY1 1-196, looked up)
chain: MADGQMPFSCHYPSRLRRDPFRDSPLSDGFGMDPFPDDLTASWPDWALPRLSSAWPGTLRSGMVPRGPTATARFGVPAEGRTPPPFPGEPWKVCVNVHSFKPEELMVKTKDGYVEVSGKHEEKQQEGGIVSKNFTKKIQLPAEVDPVTVFASLSPEGLLIIEAPQVPPYSTFGESSFNNELPQDSQEVTCT
notes: human HspB8 (Hsp22), Uniprot Q9UJY1, with the pentapeptide 28SRLLD32 deleted; calculated Mw of monomer 21.0 kDa; Made by PCR from the HspB8 WT cDNA and ligated into pET23 via NdeI and XhoI; No tag is named; also called Δ mutant; deletion mutant of HspB8
stoichiometry N [1]: 2

— publication PMC8213154, “Replacement of Arg in the conserved N-terminal RLFDQxFG motif affects physico-chemical properties and chaperone-like activity of human small heat shock protein HspB8 (Hsp22)” (PLoS ONE, 2021)
